As usually defined, the Kd is the concentration at which binding is half-saturated. Low readings indicate higher affinity, high ones lower affinity. What is called koff is the rate constant with which the complex falls apart. A high value points to fast dissociation. As a reminder, the kon is the second-order rate constant of association. Higher therefore signals fast association.

Conditions in all cases: both partners purified
The target in assay [1] is T1, HA H3 top domain ( (Figure 2 shows HA of …, UniProt P03437)).
T1 construct: source: HEK293T, pTT5 vector, purified via His-tag on Ni-NTA
Briefly: SPR. In general terms: Surface plasmon resonance follows binding to a sensor surface in real time, without labels.

Assay [2] deals with T1, HA H3 top domain. Briefly: ELISA. (ELISA stands for enzyme-linked immunosorbent assay.)
Assay [3] deals with T2, wild-type cyanovirin-N (WT CV–N) ( (cyanobacterial lectin), UniProt P81180 1-101).
T2 construct: also called WT CV–N monomer; monomeric CV–N
T2 sequence: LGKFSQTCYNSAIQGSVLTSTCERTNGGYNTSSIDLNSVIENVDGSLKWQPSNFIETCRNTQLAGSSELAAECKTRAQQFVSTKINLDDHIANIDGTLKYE
Briefly: SPR.

B1: HC19 Fab, anti-influenza HA (Fab, V domains shown)
VH: QVQLKESGPGLVAPSQSLSITCTVSGFLLISNGVHWVRQPPGKGLEWLGVIWAGGNTNYNSALMSRVSISKDNSKSQVFLKMKSLQTDDTAMYYCARDFYDYDVFYYAMDYWGQGTSVTVSS
VL: QAVVTQESALTTSPGETVTLTCRSSTGAVTTSNYANWVQEKPDHLFTGLIGGTNNRAPGVPARFSGSLIGDKAALTITGAQTEDEAIYFCALWYSNHWVFGGGTKLTVL
notes: also called anti-HA HC19; HC19 anti-influenza Fab; source: HEK293-6E, transient transfection, purified from supernatant (protein A, SEC)
As to B1, in the assay with HA H3 top domain [1], binding was characterised by a dissociation constant (Kd) of 64 nM, the koff is 0.0231 s⁻¹ and the kon stood at 360000 M⁻¹ s⁻¹. This molecule also gave a Kd in the assay with HA H3 top domain [2] of 12.5 nM.

B2: HIV-1 gp140 trimer, Clade A 92 UG 037.8 (domain or fragment)
chain: not shown
In assay [3], B2 displayed a Kd of 120 nM.

The values are drawn from article PMC8231982 (Molecules, 2021).
